Measured values taken from paper PMC5714945, “A homologue of the Parkinson’s disease-associated protein LRRK2 undergoes a monomer-dimer transition during GTP turnover” (Nature Communications, 2017).

Assays:
[1] = target: the molecule itself; experiment: cell-based or functional assay
[2] = target: the molecule itself; experiment: SEC-MALS; nucleotide-free protein; 10 µl of 8 mg ml^-1 injected on a Bio SEC-3 column; buffer as for SEC-SAXS
[3] = target: the molecule itself; experiment: native MS; GppNHp: pre-incubated with 500 µM, 100 µM in 150 mM ammonium acetate pH 7.5; protein 12.5-16 µM
[4] = target: the molecule itself; experiment: SEC-SAXS; nucleotide-free protein; 50 µl of 8 mg ml^-1 injected on a Bio SEC-3 column; 20 mM Hepes pH 7.5, 150 mM NaCl, 5 mM MgCl2, 5% glycerol, 1 mM DTT; mass from Porod volume
[5] = target: the molecule itself; experiment: AUC; sedimentation equilibrium, with GDP; dimer to monomers; 7.2, 4.5 and 2.7 µM protein; buffer as SV-AUC; SEDPHAT monomer-dimer model; approximate KD
[6] = target: the molecule itself; experiment: AUC; sedimentation equilibrium, with GppNHp; dimer to monomers; 7.2, 4.5 and 2.7 µM protein; buffer as SV-AUC; SEDPHAT monomer-dimer model; approximate KD

B1: CtRoc-COR L487A mutant (domain or fragment, Chlorobium tepidum, UniProt Q8KC98 412-946, looked up)
chain: DNPLESPPPEIVKQGKEAVRQYFQSIEEARSKGEALVHLQEIKVHLIGDGMAGKTSLLKQLIGETFDPKESQTHGANVVTKQAPNIKGLENDDELKECLFHFWDFGGQEIMHASHQFFMTRSSVYMLLLDSRTDSNKHYWLRHIEKYGGKSPVIVVMNKIDENPSYNIEQKKINERFPAIENRFHRISCKNGDGVESIAKSLKSAVLHPDSIYGTPLAPSWIKVKEKLVEATTAQRYLNRTEVEKICNDSGITDPGERKTLLGYLNNLGIVLYFEALDLSEIYVLDPHWVTIGVYRIINSSKTKNGHLNTSALGYILNEEQIRCDEYDPAKNNKFTYTLLEQRYLLDIMKQFELCYDEGKGLFIIPSNLPTQIDNEPEITEGEPLRFIMKYDYLPSTIIPRLMIAMQHQILDRMQWRYGMVLKSQDHEGALAKVVAETKDSTITIAIQGEPRCKREYLSIIWYEIKKINANFTNLDVKEFIPLPGHPDELVEYKELLGLEKMGRDEYVSGKLEKVFSVSKMLDSVISKEERNKER
notes: Roco protein from Chlorobium tepidum, Roc-COR module a.a; 412-946, with L487A (analogue of LRRK2 I1371V); also called L487A CtRoc-COR
**Q.** What does the source list for B1?
**A.** single-turnover GTP hydrolysis rate constant (1 µM protein, 1 µM GTP, GDP formation by reversed-phase HPLC), L487A against wild-type CtRoc-COR [1]: 4 fold decrease; stoichiometry N [2]: 2

B2: Roc-COR domain construct of the Chlorobium tepidum Roco protein (CtRoc-COR) (domain or fragment, UniProt Q8KC98 412-946, looked up)
chain: DNPLESPPPEIVKQGKEAVRQYFQSIEEARSKGEALVHLQEIKVHLIGDGMAGKTSLLKQLIGETFDPKESQTHGLNVVTKQAPNIKGLENDDELKECLFHFWDFGGQEIMHASHQFFMTRSSVYMLLLDSRTDSNKHYWLRHIEKYGGKSPVIVVMNKIDENPSYNIEQKKINERFPAIENRFHRISCKNGDGVESIAKSLKSAVLHPDSIYGTPLAPSWIKVKEKLVEATTAQRYLNRTEVEKICNDSGITDPGERKTLLGYLNNLGIVLYFEALDLSEIYVLDPHWVTIGVYRIINSSKTKNGHLNTSALGYILNEEQIRCDEYDPAKNNKFTYTLLEQRYLLDIMKQFELCYDEGKGLFIIPSNLPTQIDNEPEITEGEPLRFIMKYDYLPSTIIPRLMIAMQHQILDRMQWRYGMVLKSQDHEGALAKVVAETKDSTITIAIQGEPRCKREYLSIIWYEIKKINANFTNLDVKEFIPLPGHPDELVEYKELLGLEKMGRDEYVSGKLEKVFSVSKMLDSVISKEERNKER
notes: Roco protein from Chlorobium tepidum (CtRoco), central Roc-COR module, a.a; 412-946; The monomer chain is written; also called CtRoc-COR wt; Roc-COR module; source: E. coli BL21 (DE3), purified (Ni-NTA IMAC, EDTA treatment, Superdex S200 SEC)
**Q.** For B2, which monomer/dimer ratio [3] is on record?
**A.** ~1 monomer/dimer

**Q.** What about the “stoichiometry N” value [4] of the same protein?
**A.** 2

B3: Roco protein from Chlorobium tepidum (CtRoco), full length (natural protein, UniProt Q8KC98 1-1102, looked up)
chain: MSDLDVIRQIEQELGMQLEPVDKLKWYSKGYKLDKDQRVTAIGLYDCGSDTLDRIIQPLESLKSLSELSLSSNQITDISPLASLNSLSMLWLDRNQITDIAPLASLNSLSMLWLFGNKISDIAPLESLKSLTELQLSSNQITDIAPLASLKSLTELSLSGNNISDIAPLESLKSLTELSLSSNQITDIAPLASLKSLTELSLSSNQISDIAPLESLKSLTELQLSRNQISDIAPLESLKSLTELQLSSNQITDIAPLASLKSLTELQLSRNQISDIAPLESLNSLSKLWLNGNQITDIAPLASLNSLTELELSSNQITDIAPLASLKSLSTLWLSSNQISDIAPLASLESLSELSLSSNQISDISPLASLNSLTGFDVRRNPIKRLPETITGFDMEILWNDFSSSGFITFFDNPLESPPPEIVKQGKEAVRQYFQSIEEARSKGEALVHLQEIKVHLIGDGMAGKTSLLKQLIGETFDPKESQTHGLNVVTKQAPNIKGLENDDELKECLFHFWDFGGQEIMHASHQFFMTRSSVYMLLLDSRTDSNKHYWLRHIEKYGGKSPVIVVMNKIDENPSYNIEQKKINERFPAIENRFHRISCKNGDGVESIAKSLKSAVLHPDSIYGTPLAPSWIKVKEKLVEATTAQRYLNRTEVEKICNDSGITDPGERKTLLGYLNNLGIVLYFEALDLSEIYVLDPHWVTIGVYRIINSSKTKNGHLNTSALGYILNEEQIRCDEYDPAKNNKFTYTLLEQRYLLDIMKQFELCYDEGKGLFIIPSNLPTQIDNEPEITEGEPLRFIMKYDYLPSTIIPRLMIAMQHQILDRMQWRYGMVLKSQDHEGALAKVVAETKDSTITIAIQGEPRCKREYLSIIWYEIKKINANFTNLDVKEFIPLPGHPDELVEYKELLGLEKMGRDEYVSGKLEKVFSVSKMLDSVISKEERNKERLMGDINIKLENIGNPTIPIHQQVEVNVSQETVQHVENLQGFFENLKADILREAELEIDDPKERKRLANELELAENAITKMDAAVKSGKNKLKPDVKDRLGEFIDNLANENSRLRKGIALVMNGAEKVQKLARYYNNVAPFFDLPSVPPVLLGKEKT
notes: Roco protein from Chlorobium tepidum (CtRoco), a.a; 1-1102: LRR domain (1-411), Roc-COR module (412-946), C-terminal region (947-1102); also called CtRoco wt; C. tepidum Roco protein; source: E. coli BL21 (DE3), purified (Ni-NTA IMAC, EDTA treatment, Superdex S200 SEC)
**Q.** What does the source list for B3?
**A.** monomer-dimer ratio [3]: 1 monomer/dimer; Kd [5]: ~2 µM; Kd [6]: ~30 µM; stoichiometry N [4]: 2

B4: CtRoco L487A mutant, full length (natural protein, Chlorobium tepidum, UniProt Q8KC98 1-1102, looked up)
chain: MSDLDVIRQIEQELGMQLEPVDKLKWYSKGYKLDKDQRVTAIGLYDCGSDTLDRIIQPLESLKSLSELSLSSNQITDISPLASLNSLSMLWLDRNQITDIAPLASLNSLSMLWLFGNKISDIAPLESLKSLTELQLSSNQITDIAPLASLKSLTELSLSGNNISDIAPLESLKSLTELSLSSNQITDIAPLASLKSLTELSLSSNQISDIAPLESLKSLTELQLSRNQISDIAPLESLKSLTELQLSSNQITDIAPLASLKSLTELQLSRNQISDIAPLESLNSLSKLWLNGNQITDIAPLASLNSLTELELSSNQITDIAPLASLKSLSTLWLSSNQISDIAPLASLESLSELSLSSNQISDISPLASLNSLTGFDVRRNPIKRLPETITGFDMEILWNDFSSSGFITFFDNPLESPPPEIVKQGKEAVRQYFQSIEEARSKGEALVHLQEIKVHLIGDGMAGKTSLLKQLIGETFDPKESQTHGANVVTKQAPNIKGLENDDELKECLFHFWDFGGQEIMHASHQFFMTRSSVYMLLLDSRTDSNKHYWLRHIEKYGGKSPVIVVMNKIDENPSYNIEQKKINERFPAIENRFHRISCKNGDGVESIAKSLKSAVLHPDSIYGTPLAPSWIKVKEKLVEATTAQRYLNRTEVEKICNDSGITDPGERKTLLGYLNNLGIVLYFEALDLSEIYVLDPHWVTIGVYRIINSSKTKNGHLNTSALGYILNEEQIRCDEYDPAKNNKFTYTLLEQRYLLDIMKQFELCYDEGKGLFIIPSNLPTQIDNEPEITEGEPLRFIMKYDYLPSTIIPRLMIAMQHQILDRMQWRYGMVLKSQDHEGALAKVVAETKDSTITIAIQGEPRCKREYLSIIWYEIKKINANFTNLDVKEFIPLPGHPDELVEYKELLGLEKMGRDEYVSGKLEKVFSVSKMLDSVISKEERNKERLMGDINIKLENIGNPTIPIHQQVEVNVSQETVQHVENLQGFFENLKADILREAELEIDDPKERKRLANELELAENAITKMDAAVKSGKNKLKPDVKDRLGEFIDNLANENSRLRKGIALVMNGAEKVQKLARYYNNVAPFFDLPSVPPVLLGKEKT
notes: Roco protein from Chlorobium tepidum (CtRoco), a.a; 1-1102, with L487A (analogue of LRRK2 I1371V); also called L487A CtRoco
**Q.** For B4, which “stoichiometry N” value [2] is on record?
**A.** 2
